Substitutions are numbered along the chain they refer to. Where “and” joins values, the source holds several entries; their conditions need not be identical. Equal entries are not always repeated.
Assays:
[1] = molecular target: T1, Human Tau 2N4R, wild type, recombinant full length (human, UniProt P10636 2-758); experiment: SPR, streptavidin capture; against 7G6-HCzu24 and 7G6-HCzu25 mAbs
T1 construct: Full length 2N4R isoform; monomer in SPR and ELISA; heparin-induced aggregates or seeds in the functional assays; also called Tau441; Tau-441
Experimental: (§1) 400 μg of each antibody was diluted to 2 mg/mL and buffer-exchanged into 0.1 M sodium bicarbonate, pH 8.3 using 0.5 mL Zeba™ 40 kDa MWCO desalting columns (Thermo). NHS-PEG4-biotin, prepared immediately before use by dissolving in water to a 20 mM final stock concentration, was added to antibodies at a 5:1 molar ratio (biotin:MAb) and conjugated for 1 hr at room temperature. Excess biotin was removed by two sequential buffer exchanges into 1×DPBS using 0.5 mL Zeba™ 40 kDa MWCO desalting columns. For the BIAcore™ assay, antibodies were diluted to 2 μg/mL in PBS-P+/0.2% BSA (the same preparation used for the running buffer), centrifuged at 14,000 g for 5 min at room temperature, and the supernatant transferred to a new tube. Injection time was subsequently determined for each antibody to achieve a capture level of ˜225 RU.
(§2) Biotinylated humanized and mouse mAbs were captured on a streptavidin-coated chip and kₐ, kd, and KD were determined for binding to Tau (Table 11). […] The affinity of 7G6-HCzu8-LCzu6, 7G6-HCzu24-LCzu15, 7G6-HCzu24-LCzu18, 7G6-HCzu25-LCzu15, and 7G6-HCzu25-LCzu18 were all similar.

[2] = molecular target: T1, Human Tau 2N4R, wild type, recombinant …; experiment: SPR BIAcore, biotinylated mAb on streptavidin (CAP) chip, single cycle, 1:1 Langmuir
Experimental: as §1, §2

[3] = molecular target: T1, Human Tau 2N4R, wild type, recombinant …; experiment: SPR BIAcore, anti-human capture, monomeric Tau, 1:1 Langmuir
Experimental: (§3) All experiments were performed using a BIAcore™ T-100 instrument (GE Healthcare). 10 μL anti-human IgG (monoclonal mouse anti-human Fc) from human antibody capture kit (GE Healthcare) was diluted to 25 μL/mL in 200 μL final immobilization buffer (10 mM sodium acetate, pH 5.0). The flow rate was set to 5 μL/min, flowpath 1. Fifty μL N-hydroxysuccinamide (NETS) and 50 μL 1-ethyl-3-(3-dimethylaminopropyl) carbidiimide (EDC) were mixed and injected for 420 sec to activate the CM5 chip surface. The diluted antibody was injected for 360 seconds followed by 1 M ethanolamine for 420 seconds. The flowpath was then switched to flowpath 2. A new EDC/NHS mixture was prepared and the procedure was repeated for flow cell 2. The surface was conditioned by 2 injections of 30 sec using flowpath 1, 2 at 30 μL/min of 3M MgCl₂. For the anti-mouse surface, 10 μL anti-mouse IgG (polyclonal rabbit anti-mouse IgG) from mouse antibody capture kit (GE Healthcare) was diluted to 30 μL/mL in 324 μL final immobilization buffer (10 mM sodium acetate, pH 5.0). The flow rate was set to 5 μL/min, flowpath 3. Fifty μL NHS and 50 μL EDC were mixed and injected for 420 sec to activate the chip surface. The diluted antibody was injected for 420 sec. 1 M ethanolamine was injected for 420 sec. Flow path was switched to flowpath 4. A new EDC/NHS mixture was prepared and the procedure was repeated for flow cell 4. The surface was conditioned by 2 injections of 30 sec using flowpath 3, 4 at 30 μL/min of 10 mM glycine, pH 1.7.
Tau binding for humanized mAbs was analyzed by BIAcore™ in two different formats. The first format was performed as above, i.e. mAbs were captured with an immobilized species-specific anti-Fc antibody. […] In the second format, biotinylated mAbs were captured on a streptavidin-coated chip. This latter format allowed direct comparison of Tau binding affinity between humanized and the parental mouse antibody since the capture method was identical.
The final humanized mAbs were analyzed by BIAcore™ to determine the kₐ, kd, and KD for binding to Tau as above (Table 10).

[4] = molecular target: T2, HVPGG site of Tau (15-mer array peptides containing HVPGG) (human); experiment: peptide microarray; HVPGG site of the second repeat region against HQPGG (repeat region 1)
T2 peptide: HVPGG
Experimental: (§4) The diluted antibody was incubated on the chip for 16 hours at 4° C. with shaking at 140 rpm. Primary antibody was removed and the chip was washed in PBS (pH 7.4)/0.05% Tween 20. Wash buffer was removed and goat anti-mouse IgG (H+L) DyLight™680 (1:5000) and an anti-HA tag DyLight™ 800 (1:2000) in the same buffer as the primary antibody was then incubated for 45 minutes at room temperature on the chip. Detection antibody was removed and the chip was washed once again as previously. Fluorescence images were acquired on the LI-COR Odyssey™ Imaging System and the microarray data was finally analyzed using the PepSlide™ Analyser software.

[5] = molecular target: T2, HVPGG site of Tau (15-mer array …); experiment: peptide microarray; HVPGG site of the fourth repeat region against HQPGG (repeat region 1)
Experimental: as §4

[6] = molecular target: T1, Human Tau 2N4R, wild type, recombinant …; experiment: SPR, streptavidin capture; against ms7G6
Experimental: as §1, §2

[7] = molecular target: T1, Human Tau 2N4R, wild type, recombinant …; experiment: SPR BIAcore, anti-human Fc capture, multi-cycle, 1:1 Langmuir, average of flow cells
Experimental: A 0 nM Tau protein solution was prepared by adding 3 mL Assay Running Buffer to labeled 5 mL tube. Analyte dilutions were transferred to labeled 4 mL plastic vials and capped with type 5 caps, vortexed briefly to remove any air bubbles adhered to tube walls or bottom, and placed in Sample and Reagent Rack 1. For chip conditioning analyte sample, 5 μL of 1 μM Tau protein solution supernatant was removed and diluted to 500 μL in Assay Buffer in a 7 mm plastic vial, capped, vortexed briefly to dislodge adhered air bubbles, and placed in Sample and Reagent Rack 1. Humanized antibodies were captured on flow cells 2, 3, and 4 sequentially at a flow rate of 10 μL/min for a contact time of 36 sec. Dilutions of Tau protein were injected over all 4 flow cells at a flow rate of 30 μL/min for a contact time of 300 sec. Dissociation was followed for 1800 sec. Following each cycle, the surface was regenerated by two sequential injections of 30 sec at 30 μL/min of 3 M MgCl₂ over all four flow cells. After the run, kinetic data fitting was performed using a 1:1 Langmuir model.
The affinity of recombinant human wild-type 2N4R Tau protein to 7G6-HCzu25LCzu18 antibody was determined using an antibody-capture format assay. Following capture of 7G6-HCzu25LCzu18 antibody, human Tau protein was injected over the ligand surface for 300 sec, followed by observation and measurement of dissociation for 1800 sec. After each antibody capture, Tau protein binding, and dissociation cycle, the chip surface was regenerated to the anti-human antibody capture surface using 3M MgCl₂, as required by the manufacturer. Tau protein was analyzed in a concentration range from 100 nM to 0.046 nM (3-fold diluted). The assay was performed in multi-cycle mode, such that a dissociation was performed for each tau protein injection. Each ligand was analyzed on all three flow cells (fc2, fc3, and fc4) in triplicate, in order to eliminate any flow cell-specific effects.
Binding data was double-referenced, meaning referenced to both fc1 with no ligand bound and to buffer analyte injections (0 nM Tau protein). […]

[8] = molecular target: T2, HVPGG site of Tau (15-mer array …); experiment: peptide microarray; HVPGG site of the second repeat region against HKPGG (repeat region 3)
Experimental: as §4

[9] = molecular target: T2, HVPGG site of Tau (15-mer array …); experiment: peptide microarray; HVPGG site of the fourth repeat region against HKPGG (repeat region 3)
Experimental: as §4

[10] = molecular target: T1, Human Tau 2N4R, wild type, recombinant …; experiment: SPR BIAcore, mAb captured by anti-human IgG, Tau flowed, 1:1 Langmuir
Experimental: as §3
Binding of humanized and mouse antibodies were analyzed by surface plasmon resonance (BIAcore™) to determine their relative association rates (kₐ), dissociation rates (kd), and equilibrium binding constants (KD). Anti-mouse or anti-human antibodies were immobilized on a CM5 chip and sample mAbs were captured on the chip. 2N4R Tau was flowed over the chip and binding observed. The binding constants kₐ, kd, and KD were determined using a 1:1 Langmuir fitting model.

[11] = molecular target: T1, Human Tau 2N4R, wild type, recombinant …; experiment: SPR, streptavidin capture; against 7G6-HCzu8-LCzu6
Experimental: as §1, §2

T1 sequence (P10636 other isoform, or with tags, fused parts or gaps limits assumed): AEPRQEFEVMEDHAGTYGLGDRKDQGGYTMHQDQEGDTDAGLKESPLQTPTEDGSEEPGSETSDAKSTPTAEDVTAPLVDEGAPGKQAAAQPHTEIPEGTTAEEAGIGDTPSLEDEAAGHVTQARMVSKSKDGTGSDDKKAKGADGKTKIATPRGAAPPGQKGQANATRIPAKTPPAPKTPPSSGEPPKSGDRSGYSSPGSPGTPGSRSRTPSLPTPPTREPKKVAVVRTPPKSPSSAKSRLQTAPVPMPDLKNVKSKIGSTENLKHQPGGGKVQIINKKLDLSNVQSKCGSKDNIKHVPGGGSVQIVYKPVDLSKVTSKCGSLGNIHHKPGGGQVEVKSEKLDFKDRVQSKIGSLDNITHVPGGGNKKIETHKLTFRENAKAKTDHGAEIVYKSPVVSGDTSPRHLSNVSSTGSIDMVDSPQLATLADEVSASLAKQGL

B1: 7G6-HCzu23-LCzu15 (antibody, human IgG1, kappa)
heavy: not shown
light: DVQMTQSPSSLSASVGDRVTITCRSSQSILHSNGNTYLEWYQQKPGKAPKLLISKVSNRFSGVPSRFSGSGSGTDFTLTISSLQPEDFATYYCFQGSHVPFTFGQGTKLEIKRTVAAPSVFIFPPSDEQLKSGTASVVCLLNNFYPREAKVQWKVDNALQSGNSQESVTEQDSKDSTYSLSSTLTLSKADYEKHKVYACEVTHQGLSSPVTKSFNRGEC
notes: humanized, human IgG1 kappa
In the case of B1, the “fold drop in affinity” value [1] is reported as roughly 2 fold, the Kd [2] is reported as 0.152 nM and the koff [2] is reported as 0.000332 s⁻¹. It also gave a kon [2] of 2.18e+06 M⁻¹ s⁻¹, a Kd [3] of 0.25 nM and a koff [3] of 0.00039 s⁻¹. It also gave a kon [3] of 1.61e+06 M⁻¹ s⁻¹.

B2: 7G6-HCzu23-LCzu18 (antibody, human IgG1, kappa)
heavy: not shown
light: B1 light with V2I
notes: humanized, human IgG1 kappa
In the case of B2, the “fold drop in affinity” value [1] is reported as roughly 2 fold, the Kd [2] is reported as 0.182 nM and the koff [2] is reported as 0.00039 s⁻¹. It also gave a kon [2] of 2.14e+06 M⁻¹ s⁻¹, a Kd [3] of 0.22 nM and a koff [3] of 0.00037 s⁻¹. It also gave a kon [3] of 1.71e+06 M⁻¹ s⁻¹.

B3: 7G6-HCzu25-LCzu18 (antibody, human IgG1, kappa)
heavy: not shown
light: B1 light with V2I
notes: humanized, human IgG1 kappa; also called 7G6-zuHC25-zuLC18; 7G6-HCzu25-LCzu18-HEK
With B3 the “fold preference in binding (average signal intensities)” value (shortened to “fold preference in binding”) [4] was 65 fold, the “fold preference in binding” value [5] was 77 fold and the “fold drop in affinity” value [6] was roughly 1.4 fold. It also gave a Kd [2] of 0.0881 nM, a koff [2] of 0.000307 s⁻¹ and a kon [2] of 3.5e+06 M⁻¹ s⁻¹. The Kd [7] was 0.0657 nM and 0.0659 nM and 0.0645 nM, the koff [7] was 0.000126 s⁻¹ (2×) and 0.000123 s⁻¹ and the kon [7] was 1.92e+06 M⁻¹ s⁻¹ and 1.91e+06 M⁻¹ s⁻¹. For the same binder, the “fold preference in binding” value [8] was 100 fold, the Kd [3] was 0.13 nM and the koff [3] was 0.00014 s⁻¹. The kon [3] was 1.11e+06 M⁻¹ s⁻¹ and the “fold preference in binding” value [9] was 119 fold.

B4: 7G6-HCzu24-LCzu18 (antibody, human IgG1, kappa)
heavy: not shown
light: B1 light with V2I
notes: humanized, human IgG1 kappa
With B4 the “fold drop in affinity” value [6] was roughly 1.4 fold, the Kd [2] was 0.0797 nM and the koff [2] was 0.000304 s⁻¹. For the same binder, the kon [2] was 3.81e+06 M⁻¹ s⁻¹, the Kd [3] was 0.09 nM and the koff [3] was 9e-05 s⁻¹. It also gave a kon [3] of 948000 M⁻¹ s⁻¹.

B5: 7G6-HCzu25-LCzu15 (antibody, human IgG1, kappa)
heavy: not shown
light: B1 light
notes: humanized, human IgG1 kappa
B5 was tested, and the “fold drop in affinity” value [6] was roughly 1.4 fold, the Kd [2] was 0.0998 nM and the koff [2] was 0.00027 s⁻¹. The kon [2] was 2.71e+06 M⁻¹ s⁻¹, the Kd [3] was 0.13 nM and the koff [3] was 0.00013 s⁻¹. For the same binder, the kon [3] was 985000 M⁻¹ s⁻¹.

B6: 7G6-HCzu24-LCzu15 (antibody, human IgG1, kappa)
heavy: not shown
light: B1 light
notes: humanized, human IgG1 kappa
In the case of B6, the “fold drop in affinity” value [6] is reported as roughly 1.4 fold, the Kd [2] is reported as 0.0898 nM and the koff [2] is reported as 0.000487 s⁻¹. For the same binder, the kon [2] was 5.42e+06 M⁻¹ s⁻¹, the Kd [3] was 0.13 nM and the koff [3] was 0.00011 s⁻¹. It also gave a kon [3] of 809000 M⁻¹ s⁻¹.

B7: 7G6-HCzu8-LCzu6 (antibody, human IgG1, kappa, V domains shown)
VH: QVQLVQSGAEVKKPGASVKVSCKASGYTFTTYWITWVRQAPGQGLEWMGDIYPGSSISNYAQKFQGRVTMTRDTSTSTVYMELSSLRSEDTAVYYCAREDGYDAWFAYWGQGTLVTVSS
VL: DVVMTQSPLSLPVTLGQPASISCRSSQSILHSNGNTYLEWYQQRPGQSPRLLISKVSNRFSGVPDRFSGSGSGTDFTLKISRVEAEDVGVYYCFQGSHVPFTFGQGTKLEIKR
modifications: N-terminal pyroglutamic acid
notes: humanized, human IgG1 kappa; also called 7G6-HCzu8-LCzu6-HEK; ATCC PTA-124523
In the case of B7, the “fold preference in binding” value [4] is reported as 108 fold, the Kd [10] is reported as 0.0968 nM and the koff [10] is reported as 0.00021 s⁻¹. The kon [10] was 2.17e+06 M⁻¹ s⁻¹, the “fold preference in binding” value [5] was 99 fold and the “fold drop in affinity” value [6] was roughly 1.4 fold. The Kd [2] was 0.0915 nM, the koff [2] was 0.000258 s⁻¹ and the kon [2] was 2.82e+06 M⁻¹ s⁻¹. For the same binder, the “fold preference in binding” value [8] was 104 fold, the Kd [3] was 0.15 nM and the koff [3] was 0.00022 s⁻¹. The kon [3] was 1.49e+06 M⁻¹ s⁻¹ and the “fold preference in binding” value [9] was 95 fold.

B8: 7G6-HCzu8-LCzu21 (antibody, human IgG1, kappa, V domains shown)
VH: B7 VH
VL: B7 VL with Y41F
modifications: N-terminal pyroglutamic acid
notes: humanized, human IgG1 kappa
In the case of B8, the “fold drop in affinity” value [11] is reported as less than 2 fold, the Kd [2] is reported as 0.138 nM and the koff [2] is reported as 0.000313 s⁻¹. The kon [2] was 2.28e+06 M⁻¹ s⁻¹.

Reference: patent US20190112365A1 (EISAI R AND D MANAGEMENT, published 2019)
